Target: recombinant human Trop-2/Fc/His fusion protein (manufactured by R&D) (human) (UniProt P09758)
Assay: SPR (Biacore T100), Trop-2/Fc/His captured by Tetra-His antibody on CM5 chip, antibody as analyte, Bivalent Analyte model, mean of duplicates

Chain of recombinant human Trop-2/Fc/His fusion protein (manufactured by R&D) (human) (P09758 27-274 limits assumed): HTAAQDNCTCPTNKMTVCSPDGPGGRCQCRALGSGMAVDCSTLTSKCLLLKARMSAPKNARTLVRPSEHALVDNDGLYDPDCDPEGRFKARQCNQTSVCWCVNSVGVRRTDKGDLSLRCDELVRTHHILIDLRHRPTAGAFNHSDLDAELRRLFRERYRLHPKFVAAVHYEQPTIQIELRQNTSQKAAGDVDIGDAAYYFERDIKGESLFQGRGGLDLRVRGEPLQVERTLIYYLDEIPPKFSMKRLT

Substance | Kd | koff | kon
77220 (manufactured by R&D), anti-Trop-2 mouse monoclonal antibody | 1.1 nM | 0.00061 s⁻¹ | 555000 M⁻¹ s⁻¹
MOv16 (manufactured by Alexis), anti-Trop-2 mouse monoclonal antibody | 0.929 nM | 0.000184 s⁻¹ | 183000 M⁻¹ s⁻¹

— US20120237518A1
